Test system: Escherichia coli TOP10
Test: shrunken log2 fold change of peptide-encoding DNA abundance (4.5 h post-induction vs induction); higher = less antimicrobial activity (less host growth inhibition)
Conditions: time post-induction: 4.5 h; library: site-saturation at positions 5, 18, 19, 20
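Note: peptides expressed intracellularly from a pBAD plasmid library in pooled LB shake-flask culture, induced with 0.3% L-arabinose, DNA abundance read by NGS, three biological replicates, DESeq2 with apeglm shrinkage.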

| Sequence | shrunken log2 fold change |
| --- | --- |
| RRIRLRPPRLPRPRPRPAFVPRP | 0.205 |
| RRIRLRPPRLPRPRPRPAFWPRP | 0.292 |
| RRIRLRPPRLPRPRPRPAGFPRP | 0.46 |
| RRIRLRPPRLPRPRPRPAGTPRP | 0.216 |
| RRIRLRPPRLPRPRPRPAHTPRP | 0.0258 |
| RRIRLRPPRLPRPRPRPALHPRP | 0.135 |
| RRIRLRPPRLPRPRPRPAMAPRP | 0.00127 |
| RRIRLRPPRLPRPRPRPAMGPRP | 0.248 |
| RRIRLRPPRLPRPRPRPAPGPRP | 0.432 |
| RRIRLRPPRLPRPRPRPAPQPRP | 0.609 |
| RRIRLRPPRLPRPRPRPAQRPRP | 0.172 |
| RRIRLRPPRLPRPRPRPAQVPRP | 0.324 |
| RRIRLRPPRLPRPRPRPARGPRP | 0.565 |
| RRIRLRPPRLPRPRPRPARHPRP | 0.148 |
| RRIRLRPPRLPRPRPRPASHPRP | 0.0961 |
| RRIRLRPPRLPRPRPRPASIPRP | 0.0291 |
| RRIRLRPPRLPRPRPRPASRPRP | 0.00832 |
| RRIRLRPPRLPRPRPRPATFPRP | -0.0149 |
| RRIRLRPPRLPRPRPRPATGPRP | 0.13 |
| RRIRLRPPRLPRPRPRPAWAPRP | 0.232 |
| RRIRLRPPRLPRPRPRPAWLPRP | 0.229 |
| RRIRLRPPRLPRPRPRPAWRPRP | 0.454 |
| RRIRLRPPRLPRPRPRPAYEPRP | 2.25 |
| RRIRLRPPRLPRPRPRPCCHPRP | -0.215 |
| RRIRLRPPRLPRPRPRPCCLPRP | -0.293 |

| Sequence | shrunken log2 fold change |
| --- | --- |
| RRIRLRPPRLPRPRPRPCDCPRP | -0.0629 |
| RRIRLRPPRLPRPRPRPCESPRP | 0.0102 |
| RRIRLRPPRLPRPRPRPCGCPRP | 0.282 |
| RRIRLRPPRLPRPRPRPCGPPRP | -0.107 |
| RRIRLRPPRLPRPRPRPCGYPRP | -0.111 |
| RRIRLRPPRLPRPRPRPCICPRP | -0.346 |
| RRIRLRPPRLPRPRPRPCLYPRP | -0.247 |
| RRIRLRPPRLPRPRPRPCNQPRP | -1.15 |
| RRIRLRPPRLPRPRPRPCNVPRP | -0.3 |
| RRIRLRPPRLPRPRPRPCPPPRP | 0.157 |
| RRIRLRPPRLPRPRPRPCPTPRP | 0.0726 |
| RRIRLRPPRLPRPRPRPCQHPRP | -0.382 |
| RRIRLRPPRLPRPRPRPCRMPRP | -0.0411 |
| RRIRLRPPRLPRPRPRPCTGPRP | -0.0081 |
| RRIRLRPPRLPRPRPRPCVLPRP | -0.44 |
| RRIRLRPPRLPRPRPRPCVQPRP | -0.0514 |
| RRIRLRPPRLPRPRPRPCWCPRP | 0.0793 |
| RRIRLRPPRLPRPRPRPCWEPRP | -0.197 |
| RRIRLRPPRLPRPRPRPCWHPRP | -0.0884 |
| RRIRLRPPRLPRPRPRPCWPPRP | 0.0177 |
| RRIRLRPPRLPRPRPRPCYCPRP | -0.219 |
| RRIRLRPPRLPRPRPRPDAYPRP | -0.281 |
| RRIRLRPPRLPRPRPRPDDLPRP | -0.0581 |
| RRIRLRPPRLPRPRPRPDEKPRP | -0.00968 |
| RRIRLRPPRLPRPRPRPDFRPRP | 0.0254 |

| Sequence | shrunken log2 fold change |
| --- | --- |
| RRIRLRPPRLPRPRPRPDFSPRP | 0.177 |
| RRIRLRPPRLPRPRPRPDGNPRP | -0.0479 |
| RRIRLRPPRLPRPRPRPDGPPRP | 0.0394 |
| RRIRLRPPRLPRPRPRPDISPRP | 0.0207 |
| RRIRLRPPRLPRPRPRPDKDPRP | 0.0388 |
| RRIRLRPPRLPRPRPRPDMYPRP | -0.0404 |
| RRIRLRPPRLPRPRPRPDNQPRP | -0.889 |
| RRIRLRPPRLPRPRPRPDPIPRP | 0.0451 |
| RRIRLRPPRLPRPRPRPDRGPRP | 0.0151 |
| RRIRLRPPRLPRPRPRPDRNPRP | 0.0573 |
| RRIRLRPPRLPRPRPRPDSHPRP | -0.46 |
| RRIRLRPPRLPRPRPRPDSLPRP | -0.335 |
| RRIRLRPPRLPRPRPRPDSMPRP | -0.166 |
| RRIRLRPPRLPRPRPRPDTCPRP | -0.149 |
| RRIRLRPPRLPRPRPRPECHPRP | 0.0679 |
| RRIRLRPPRLPRPRPRPEDGPRP | -0.0468 |
| RRIRLRPPRLPRPRPRPEDIPRP | -0.539 |
| RRIRLRPPRLPRPRPRPEDQPRP | 0.22 |
| RRIRLRPPRLPRPRPRPEFGPRP | 0.07 |
| RRIRLRPPRLPRPRPRPEHEPRP | 0.13 |
| RRIRLRPPRLPRPRPRPEIHPRP | -0.269 |
| RRIRLRPPRLPRPRPRPEIMPRP | -0.00809 |
| RRIRLRPPRLPRPRPRPEKFPRP | -0.175 |
| RRIRLRPPRLPRPRPRPEKQPRP | 0.0884 |
| RRIRLRPPRLPRPRPRPELEPRP | 0.23 |
